Here are results for one molecule from paper PMC7215194 (Heliyon, 2020).

The target of this assay is dansyl-calmodulin (recombinant rat CaM, dansylated) (rat, UniProt P0DP29 1-149, dansylated with dansyl chloride). The assay is described as follows: other fluorescence titration.

On to RKLWKRFFCFLRRS, for which the binding result is “binds”.
